From patent publication EP4613777A1 (Guangdong Keyangle Life Technology Co., Ltd., dated 2025)

Legend:
[1] = molecular target: T1, Peptide fragment KL19; experiment: indirect ELISA, peptide as coating antigen
T1 construct: Used as ELISA coating antigen
T1 peptide: KEQPDPGAVAAAAILRAIL

[2] = molecular target: T2, Peptide fragment KS24; experiment: indirect ELISA, peptide as coating antigen
T2 construct: It contains VLQS; Used as ELISA coating antigen
T2 peptide: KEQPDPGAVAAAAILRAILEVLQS

- binding result [1]: no binding
- binding result [2]: binds
B1: KA-001 monoclonal antibody (antibody, mouse IgG1, kappa, V domains shown)
VH: DVKIVESGGGLVKLGGSLKLSCAASGFTFSRNYMSWVRQTPEKRLELVAGINNNGGSTYYPDTVKGRFTISRDNAKNTLYLQMSSLRSEDTAIYYCAKRGFITTVGAMDYWGQGISVTVSS
VL: DIQMTQTTFSLSASLGDRVTISCRASQDISNYLNWYQQIPDGTVKLLIYYTSRLHSGVPSRFSGSGSGTDYSLTISNLEQEDIATYFCQQVHTLPYTFGGGTKLEMKR
notes: also called antibody KA-001
